Measurements reported in paper PMC3102069, “Charge Isomers of Myelin Basic Protein: Structure and Interactions with Membranes, Nucleotide Analogues, and Calmodulin” (PLoS ONE, 2011).

Tests used:
[1] = molecular target: recombinant murine 18.5-kDa myelin basic protein, C1 charge isomer analogue (rmC1) (mouse) (UniProt P04370); assay: ITC; CaM (100 µM) in the syringe titrated into rmMBP (5 µM) in the cell; 20 mM HEPES pH 7.5, 100 mM NaCl, 10 mM CaCl2; one-site model with floating, apparent stoichiometry; 35°C (temperature from Table 3)
[2] = molecular target: recombinant murine 18.5-kDa myelin basic protein, pseudodeiminated C8 charge isomer analogue (rmC8) (mouse); assay: as above
[3] = molecular target: recombinant murine 18.5-kDa myelin basic protein, C1 charge isomer analogue (rmC1) (mouse) (UniProt P04370); assay: ITC; CaM (100 µM) in the syringe titrated into rmMBP (5 µM) in the cell; 20 mM HEPES pH 7.5, 100 mM NaCl, 10 mM CaCl2; one-site model with floating, apparent stoichiometry; +20°C
[4] = molecular target: recombinant murine 18.5-kDa myelin basic protein, pseudodeiminated C8 charge isomer analogue (rmC8) (mouse); assay: as above
[5] = molecular target: recombinant murine 18.5-kDa myelin basic protein, C1 charge isomer analogue (rmC1) (mouse) (UniProt P04370); assay: ITC; CaM (100 µM) in the syringe titrated into rmMBP (5 µM) in the cell; 20 mM HEPES pH 7.5, 100 mM NaCl, 10 mM CaCl2; one-site model with floating, apparent stoichiometry; +15°C
[6] = molecular target: recombinant murine 18.5-kDa myelin basic protein, pseudodeiminated C8 charge isomer analogue (rmC8) (mouse); assay: as above
[7] = molecular target: recombinant murine 18.5-kDa myelin basic protein, C1 charge isomer analogue (rmC1) (mouse) (UniProt P04370); assay: SEC; Superdex 200 HR 10/30, room temperature; 20 mM HEPES pH 7.5, 100 mM NaCl, 10 mM CaCl2; rmMBP 25 µM with CaM 12.5-125 µM (rmMBP:CaM 2:1, 1:1, 1:2, 1:3, 1:5)
[8] = molecular target: recombinant murine 18.5-kDa myelin basic protein, pseudodeiminated C8 charge isomer analogue (rmC8) (mouse); assay: as above
[9] = molecular target: recombinant murine 18.5-kDa myelin basic protein, C1 charge isomer analogue (rmC1) (mouse) (UniProt P04370); assay: ITC; CaM (100 µM) in the syringe titrated into rmMBP (5 µM) in the cell; 20 mM HEPES pH 7.5, 100 mM NaCl, 10 mM CaCl2; one-site model with floating, apparent stoichiometry; +25°C
[10] = molecular target: recombinant murine 18.5-kDa myelin basic protein, pseudodeiminated C8 charge isomer analogue (rmC8) (mouse); assay: as above
[11] = molecular target: recombinant murine 18.5-kDa myelin basic protein, C1 charge isomer analogue (rmC1) (mouse) (UniProt P04370); assay: ITC; CaM (100 µM) in the syringe titrated into rmMBP (5 µM) in the cell; 20 mM HEPES pH 7.5, 100 mM NaCl, 10 mM CaCl2; one-site model with floating, apparent stoichiometry; +30°C
[12] = molecular target: recombinant murine 18.5-kDa myelin basic protein, pseudodeiminated C8 charge isomer analogue (rmC8) (mouse); assay: as above
[13] = molecular target: calmodulin (UniProt P0DP23); conditions: cited from earlier work

Sequence of recombinant murine 18.5-kDa myelin basic protein, C1 charge isomer analogue (rmC1) (mouse) (P04370 other isoform, or with tags, fused parts or gaps): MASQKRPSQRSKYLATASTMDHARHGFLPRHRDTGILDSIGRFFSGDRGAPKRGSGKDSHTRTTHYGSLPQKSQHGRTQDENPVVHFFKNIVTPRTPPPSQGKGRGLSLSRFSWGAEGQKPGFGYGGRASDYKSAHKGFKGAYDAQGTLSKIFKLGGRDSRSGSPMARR

| Substance | stoichiometry N [1] | Kd [2] | stoichiometry N [2] | stoichiometry N [3] | stoichiometry N [4] | stoichiometry N [5] | Kd [6] | stoichiometry N [6] | stoichiometry N [7] | stoichiometry N [8] | stoichiometry N [9] | stoichiometry N [10] | stoichiometry N [11] | stoichiometry N [12] | Kd [13] |
| --- | --- | --- | --- | --- | --- | --- | --- | --- | --- | --- | --- | --- | --- | --- | --- |
| calmodulin (CaM), recombinant (from UniProt P0DP23 1-149) (natural protein) | 0.9 | 1900 nM | 0.8 | 1.5 | 1.3 | 1.5 | 1200 nM | 1.5 | 2 | 2 | 1.9 | 1.2 | 1.4 | 1 |  |
| myelin basic protein (brain) (from UniProt P02687) |  |  |  |  |  |  |  |  |  |  |  |  |  |  | 10 nM |
